Values quoted from earlier work, collected in PMC4723247, “Novel α-L-Fucosidases from a Soil Metagenome for Production of Fucosylated Human Milk Oligosaccharides” (PLoS ONE, 2016).
Read-outs that look alike come from different tables or passages of the source.

B1: FucA2;Mgc1314;dJ20N2.5: α-L-fucosidase FucA2 from Homo sapiens (Uniprot Q7Z6V2) (protein, UniProt Q9BTY2 29-467, looked up)
Plasma alpha-L-fucosidase: HSATRFDPTWESLDARQLPAWFDQAKFGIFIHWGVFSVPSFGSEWFWWYWQKEKIPKYVEFMKDNYPPSFKYEDFGPLFTAKFFNANQWADIFQASGAKYIVLTSKHHEGFTLWGSEYSWNWNAIDEGPKRDIVKELEVAIRNRTDLRFGLYYSLFEWFHPLFLEDESSSFHKRQFPVSKTLPELYELVNNYQPEVLWSDGDGGAPDQYWNSTGFLAWLYNESPVRGTVVTNDRWGAGSICKHGGFYTCSDRYNPGHLLPHKWENCMTIDKLSWGYRREAGISDYLTIEELVKQLVETVSCGGNLLMNIGPTLDGTISVVFEERLRQMGSWLKVNGEAIYETHTWRSQNDTVTPDVWYTSKPKEKLVYAIFLKWPTSGQLFLGHPKAILGATEVKLLGHGQPLNWISLEQNGIMVELPQLTIHQMPCKWGWALALTNVI
B2: FUCA1: α-L-fucosidase from Canis lupus familiaris (Uniprot P48300) (protein, UniProt P48300 27-465, looked up)
Tissue alpha-L-fucosidase: LVRAAAPPRRYTPDWQSLDSRPLPDWFDKAKFGVFVHWGEFAVPAWGSEWFWWHWKGEGLPQYEQFMSENYPPGFSYADFGPQFTARFFHPDTWADLFQAAGARYVVLTTKHHEGFTNWPSSVSWNWNSNDVGPHRDLVGELGRALRKRNIRYGLYHSLLEWFHPLYLLDKKNNFKTQFFVRAKTMPELYDLVNRYEPDLIWSDGEWKCPDTYWNSTEFLSWLYNDSPVKDHVVVNDRWGQNCSCHHGGYYNCQDKYKPESLPDLKWEMCTSIDKVSWGYRRNMVMSDVASECEIISELVQTVSLGGNYLLNIGPTKDGLIVPIFQERLLSIGKWLSINGEAIYASKPWRVQLEKNTTSVWYTSRGMTVYAIFLRWPENGVLSLKSPVTTSTTQITMLGIQKDLKWSTEPEGLLIYLPQLSLFTLPVEFGWTIKLTGVE
B3: FucA1;FucA: α-L-fucosidase FucA1 from Rattus norvegicus (Uniprot P17164) (protein, UniProt P17164 29-462, looked up)
Tissue alpha-L-fucosidase: APHHYTPDWPSLDSRPLPRWFDEAKFGLFVHWGVYSVPAWGSEWFWWHWQGEQSSAYVRFMKENYPPGFSYADFAPQFTARFFHPEEWADLFQAAGAKYVVLTAKHHEGFTNWPSAVSWNWNSKDVGPHRDLVGELGAAVRKRNIRYGLYHSLFEWFHPLYLLDKKNGLKTQHFVSTKTMPELYDLVNRYKPDLIWSDGEWECPDSYWNSTEFLAWLYNESPVKDQVVVNDRWGQNCSCRHGGYYNCEDKYRPHSLPDHKWEMCTSVDKASWGYRRDMSMSTIVDENEIIEELVQTISLGGNYLLNIGPNKDGVIVPIFQERLLAVGKWLQINGEAIYASKPWRVQSERNKTVVWYTTKDSAVYATFLHWPEDGVVNLQSPKMTSATKITMLGMEGELHWTQDPLEGVLITLPQLPPGTFPVESAWTLKLTKVN
B4: AtFUC1;At2g28100: α-1,3/4-L-fucosidase 1 from Arabidopsis thaliana (Uniprot Q8GW72) (protein, UniProt Q8GW72 24-506, looked up)
Alpha-L-fucosidase 1: SSLLKPHPCPILPLPSSQQLQWQLGSMAMFLHFGPNTFTDSEWGTGKANPSIFNPTHLNASQWVQIAKDSGFSRVILTAKHHDGFCLWPSEYTDYSVKSSQWRNGAGDVVAELASAAKEAGIGLGLYLSPWDRHEQCYGKTLEYNEFYLSQMTELLTKYGEIKEVWLDGAKGDGEKDMEYFFDTWFSLIHQLQPKAVIFSDAGPDVRWIGDEAGLAGSTCWSLFNRTNAKIGDTEPSYSQEGDGYGQDWVPAECDVSIRPGWFWHASESPKPAVQLLDIYYNSVGRNCLFLLNVPPNSSGLISEQDIKVLEEFSEMKNSIFSNNLARKAFVNSSSIRGDQSSQFGPKNVLEEGLDKYWAPEENQNEWVLYLEFKDLVSFNVLEIREPIHMGQRIASFHLETRKTGSGEWERVVSGTTVGNKRLLRFLNVVESRSLKLVVDKARTDPLISYLGLYMDKFSGSSRNTTKITITRTLKEEQQLHDL
B5: AlfA: α-L-fucosidase from Dictyostelium discoideum (Uniprot P10901) (protein, UniProt P10901 19-461, looked up)
Alpha-L-fucosidase: QQYGPTWDQINSRPLPGWYDDVKFGIFIHFGIYSVPAFANGGYAEWYWWTLKNPSSDGGATQRYHEKEFGANFTYQDFVSRFDCRLFDANEWASIIEKSGAKYVVLTSKHHEGYTLWNSEQSWNWNSVETGPGIDIVGELTKSVKNMGLHMGLYHSLFEWFNPLYLADAETGKNPTTQVYVDEILMKQLKDIVTTYEPELIWADGDWMQLSNYWKSTEFLSWLYTNSSVKDTVIVNDRWGSECRDKNGGFYTGADHFNPYKLQSHKWENCATIGYSYGYDEYEQATDYQNATELIIDLVTTVACGGNFLLDVGPDAQGTIPNNMVDRLLEIGNWLSINSESIYGSSPWRVQNMTFNIWYTTNTTNGNVYAFVFELPDDGVLILSDPIGNNKTEATLLGLKGEKGVEVSLPIESTKPGITLNIPMVAPQDYPPYVYVFRLTDVE

Parameters: method as in earlier work
Settings: S2 Table, wrapped lists given only as far as the first printed line, ref http://www.cazy.org/GH29_characterized.html and S2 Table refs 1-18

Molecule | Reported substrates hydrolyzed | Reported substrates not hydrolyzed | Reported substrates hydrolyzed (listed as FucA1)
B1 | Hydrolyzes pNP-Fuc, prefers α1-2 but capable of cleaving | – | –
B2 | 4- methylumbelliferyl- α- L-fucopyrano side | 4- methylumbellife ryl β-fucopyranos i de | 4- methylumbellife ryl α- L-fucopyranoside, pNP-F uc, 2’ -FL
B3 | Hydrolyzes pNP-Fuc, α1-2, α1-3, and α1-4 fucosyl linkages | Fucα1- 2GlcNAcβ-p NP | –
B4 | 2-aminobenzamide labeled LNFP II, 3FL, fucose linked α1-4 | 2-aminobenzamide labeled 2’-FL, pNP-Fuc | –
B5 | 6- O-alpha-L-fucopyranosyl- N-acetylglucosaminitol | Lacto-N-fucopentaitol II | –
